Test results as given in patent publication US20210061900A1 (ASTUTE MEDICAL, published 2021).
Residue numbers refer to the chain shown, from its start. Each block holds one binder with its values, some of them ahead of it.

What was measured:
[1] = molecular target: T1, C-C motif chemokine 14 (CCL14), human (human, UniProt Q16627 20-93); assay: lateral flow sandwich, CCL14 5 ng/mL; strip antibody, with 4H1/4K3 conjugate
T1 construct: Residues 20-93 are the mature CCL14 it describes, with signal peptide 1-19; also called HCC-1; NCC-2
T1 sequence: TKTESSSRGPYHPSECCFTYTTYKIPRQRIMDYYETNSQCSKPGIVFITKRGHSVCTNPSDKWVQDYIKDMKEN
Protocol: (§1) Various antibodies of the invention were tested for their ability to form sandwich complexes in a lateral flow format. Urine was used as a sample matrix for CCL14 antigen standards. One member of the antibody pair (the “strip” antibody) was immobilized onto a nitrocellulose membrane, and the other member of the antibody pair was prepared as a labeled conjugate with a label that is detectable by the ASTUTE 140® meter system for reading to the test strip.
(§2) To further understand the ability of the antibodies of the present invention to pair, a matrix of various antibodies was analyzed at a single CCL14 concentration of 5 ng/mL in a 100 μL sample volume. The solid phase “strip” antibody was applied to nitrocellulose in 3 μL of a 0.25 μg/mL solution. The conjugate was mixed with the sample volume to a concentration of 10 μg/mL.

[2] = molecular target: T1, C-C motif chemokine 14 (CCL14), human; assay: binding to arrays of CCL14-derived peptides (epitope mapping)
Protocol: Antibodies were diluted in buffer and applied to the peptide library array. Each antibody tested was optimized for the array by testing different blocking conditions and sample concentration. […] Epitope mapping was precluded in the case of antibodies showing high binding signals throughout the array.

[3] = molecular target: T1, C-C motif chemokine 14 (CCL14), human; assay: lateral flow sandwich, CCL14 5 ng/mL; labelled conjugate, with 2H3/2K1 on the strip
Protocol: as §1, §2

B1: 2H3/2K1 (antibody, V domains shown)
VH: QEQLKESGGGLVQPGGSLKLSCKASGFAFSSDYMSWVRQAPGKGLEWIGYIDPIFGSTAYASWVNGRFTISSHNAQNTLYLHLNSLTAADTATYFCARDKDYSSGWGGYFNLWGQGTLVTVSS
VL: AIVMTQTPASVEAAVGGTVTIKCQASQSINSYLAWYQQKPGQPPRLLIYEASTLASGVPSRFKGSGSGTQFTLTISDLECADAATYYCQTYYYSVDSSVGSNAFGGGTEVVVK
notes: Rabbit monoclonal IgG expressed in HEK cells; also called 2H3 heavy chain / 2K1 light chain
binding result [1]: binds

B3: 17H2/17K1 (antibody, V domains shown)
VH: QSVKESEGGLFKPADTLTLTCTVSGFSLSSYAINWVRQAPGEGLEYIGWISDVGTAYYASWAKSRSTITRNTDENTVTLKMTSLTAADTATYFCAGGDGSYSNYWVSDIWGQGTLVTVSS
VL: AVVLTQTASPVSAPVGGTVTVKCQASQTINSRLAWYQQKQGQPPKLLIYEASTLASGVPSRFKGSGSGTEYTLTIRGVECADAATYSCQEYADENIFGGGTEVVVK
notes: Rabbit monoclonal IgG expressed in HEK cells; Used as a labelled conjugate; also called 17H2 heavy chain / 17K1 light chain
binding result [3]: binds

B4: 18H1/18K1 (antibody, V domains shown)
VH: B3 VH
VL: B3 VL
notes: Rabbit monoclonal IgG expressed in HEK cells; also called 18H1 heavy chain / 18K1 light chain
binding result [3]: binds

B5: 19H2/19K3 (antibody, V domains shown)
VH: B3 VH with Y31F, T72A
VL: B3 VL with S31N, T53K
notes: Rabbit monoclonal IgG expressed in HEK cells; also called 19H2 heavy chain / 19K3 light chain
binding result [3]: binds

B7: 10H3/10K1 (antibody, V domains shown)
VH: B3 VH
VL: B3 VL with A8P, P10L, Q24R, T53K
notes: Rabbit monoclonal IgG expressed in HEK cells; also called 10H3 heavy chain / 10K1 light chain
binding result [2]: binds

B10: 12H2/12K1 (antibody, V domains shown)
VH: QSVRESEGGLFKPADTLTLTCTVSGFSLSSDAISWVRQAPGNGLEWIGAIDFGGSAYYASWAKSRSTITRNTNENTVTLKMTSLTAADTATYFCARSPSFGIVDRLDLWGQGTLVTVSS
VL: AVVLTQTASPVSAPVGGTVTIKCQASEDIDSYLAWYQQKPGQPPKLLIYDVFDLSSGVPSRFKGSGSGTEFTLTISDLECADAATYYCQSYYYVLGTTSTDHNSFGGGTEVVVK
notes: Rabbit monoclonal IgG expressed in HEK cells; also called 12H2 heavy chain / 12K1 light chain
binding result [1]: binds

Second part, the binder after the results:

binding result [2]: binds
B2: 25H2/25K1 (antibody, V domains shown)
VH: QSLEESGGDLVKPGASLTLTCTASRFDFSSAYYMCWVRQAPGKGLEWIACIYAGSSGGTYYATWAKGRFTISKTSSTTVTLQLTSLTAADTATYFCAGSTGNSRGSYFNLWGQGTLVTVSS
V domain: AQVLTQTPSPVSAAVGGTVTINCQSSQSVYDNNWLAWYQQKLGQPPKLVIYDASKLASGVPSRFKGSGSGTHFTLTISELQCDDSATYYCQGEYSDIWGFGGGTEVVVK
notes: Rabbit monoclonal IgG expressed in HEK cells; also called 25H2 heavy chain / 25K1 light chain

binding result [3]: binds
B6: 4H1/4K3 (antibody, V domains shown)
VH: B3 VH with Y31F, V77A
VL: B3 VL with S31N, T53K
notes: Rabbit monoclonal IgG expressed in HEK cells; Used as a labelled conjugate; also called 4H1 heavy chain / 4K3 light chain

binding result [1]: binds
B8: 3H1/3K1 (antibody, V domains shown)
VH: B10 VH
VL: B10 VL
notes: Rabbit monoclonal IgG expressed in HEK cells; also called 3H1 heavy chain / 3K1 light chain

binding result [1]: binds
B9: 31H1/31K1 (antibody, V domains shown)
VH: B10 VH
VL: B10 VL
notes: Rabbit monoclonal IgG expressed in HEK cells; also called 31H1 heavy chain / 31K1 light chain
